{
  "source": "the Immune Epitope Database (IEDB)",
  "experiment_in_all_cases": "IEDB peptide-MHC binding, purified MHC/competitive/radioactivity; filed as Kd, often an IC50 or EC50 that approximates it; ≥ and ≤ were set here for values at or beyond the usual limits of such assays",
  "key": {"[1]": {"biological_target": "HLA-B*40:01"}, "[2]": {"biological_target": "HLA-B*44:02"}, "[3]": {"biological_target": "HLA-B*44:03"}, "[4]": {"biological_target": "HLA-A*29:02"}, "[5]": {"biological_target": "HLA-A*24:02"}, "[6]": {"biological_target": "HLA-A*23:01"}, "[7]": {"biological_target": "HLA-A*26:01"}, "[8]": {"biological_target": "HLA-A*30:02"}, "[9]": {"biological_target": "HLA-A*01:01"}, "[10]": {"biological_target": "HLA-B*07:02"}, "[11]": {"biological_target": "HLA-B*08:01"}, "[12]": {"biological_target": "HLA-A*30:01", "details": "source organism: Mammarenavirus whitewaterense"}, "[13]": {"biological_target": "HLA-A*32:01", "details": "source organism: Mammarenavirus whitewaterense"}, "[14]": {"details": "source organism: Dengue virus 1 Brazil/97-11/1997"}, "[15]": {"details": "source organism: Mammarenavirus tacaribeense"}, "[16]": {"details": "source organism: SARS coronavirus Tor2"}, "[17]": {"details": "source organism: Dengue virus 2 Jamaica/1409/1983"}, "[18]": {"details": "source organism: Dengue virus 3 Martinique/1243/1999"}, "[19]": {"details": "source organism: Dengue virus 4 Philippines/H241/1956"}, "[20]": {"details": "source organism: Dengue virus 3 Singapore/8120/1995"}, "[21]": {"details": "source organism: Mammarenavirus whitewaterense"}},
  "data": [
    {"sequence": "SEMAEALKGM", "values": [
      {"measurement": "Kd", "setting": "[1]; [14]", "result": 613, "unit": "nM"},
      {"measurement": "Kd", "setting": "[2]; [14]", "result": 68.3, "unit": "nM"},
      {"measurement": "Kd", "setting": "[3]; [14]", "result": 22.4, "unit": "nM"}
    ]},
    {"sequence": "SEMGANFRAD", "values": [
      {"measurement": "Kd", "setting": "[2]; [14]", "result": 137, "unit": "nM"}
    ]},
    {"sequence": "SFYCDPKRFF", "values": [
      {"measurement": "Kd", "setting": "[4]; [15]", "result": 156, "unit": "nM"},
      {"measurement": "Kd", "setting": "[5]; [15]", "result": 1980, "unit": "nM"},
      {"measurement": "Kd", "setting": "[6]; [15]", "result": 491, "unit": "nM"}
    ]},
    {"sequence": "SGALDTTSY", "values": [
      {"measurement": "Kd", "setting": "[7]; [16]", "result": "≥ 55500", "unit": "nM"},
      {"measurement": "Kd", "setting": "[4]; [16]", "result": 168, "unit": "nM"},
      {"measurement": "Kd", "setting": "[8]; [16]", "result": 20.9, "unit": "nM"},
      {"measurement": "Kd", "setting": "[5]; [16]", "result": "≥ 77600", "unit": "nM"},
      {"measurement": "Kd", "setting": "[9]; [16]", "result": "≥ 80600", "unit": "nM"},
      {"measurement": "Kd", "setting": "[6]; [16]", "result": "≥ 77800", "unit": "nM"}
    ]},
    {"sequence": "SPILSITISE", "values": [
      {"measurement": "Kd", "setting": "[10]; [17]", "result": 2150, "unit": "nM"}
    ]},
    {"sequence": "SPLLLTSSQQ", "values": [
      {"measurement": "Kd", "setting": "[10]; [17]", "result": 1220, "unit": "nM"}
    ]},
    {"sequence": "SPTSYLDVDL", "values": [
      {"measurement": "Kd", "setting": "[10]; [18]", "result": 1640, "unit": "nM"}
    ]},
    {"sequence": "SSPDAVTTY", "values": [
      {"measurement": "Kd", "setting": "[7]; [16]", "result": 9740, "unit": "nM"},
      {"measurement": "Kd", "setting": "[4]; [16]", "result": "≥ 21600", "unit": "nM"},
      {"measurement": "Kd", "setting": "[8]; [16]", "result": 3290, "unit": "nM"},
      {"measurement": "Kd", "setting": "[5]; [16]", "result": "≥ 77600", "unit": "nM"},
      {"measurement": "Kd", "setting": "[9]; [16]", "result": 5490, "unit": "nM"},
      {"measurement": "Kd", "setting": "[6]; [16]", "result": "≥ 77800", "unit": "nM"}
    ]},
    {"sequence": "STVQQLTKRF", "values": [
      {"measurement": "Kd", "setting": "[7]; [17]", "result": 6790, "unit": "nM"}
    ]},
    {"sequence": "TKKVRTNAA", "values": [
      {"measurement": "Kd", "setting": "[11]; [18]", "result": 43.6, "unit": "nM"}
    ]},
    {"sequence": "VEMGEAAAIF", "values": [
      {"measurement": "Kd", "setting": "[1]; [19]", "result": 971, "unit": "nM"},
      {"measurement": "Kd", "setting": "[2]; [19]", "result": 12.9, "unit": "nM"},
      {"measurement": "Kd", "setting": "[3]; [19]", "result": 166, "unit": "nM"}
    ]},
    {"sequence": "VEPWLRGNQF", "values": [
      {"measurement": "Kd", "setting": "[1]; [14]", "result": 3780, "unit": "nM"},
      {"measurement": "Kd", "setting": "[2]; [14]", "result": 73, "unit": "nM"}
    ]},
    {"sequence": "VSSPDAVTTY", "values": [
      {"measurement": "Kd", "setting": "[7]; [16]", "result": 3700, "unit": "nM"},
      {"measurement": "Kd", "setting": "[4]; [16]", "result": 1840, "unit": "nM"},
      {"measurement": "Kd", "setting": "[8]; [16]", "result": 11.3, "unit": "nM"},
      {"measurement": "Kd", "setting": "[5]; [16]", "result": "≥ 70300", "unit": "nM"},
      {"measurement": "Kd", "setting": "[9]; [16]", "result": 223, "unit": "nM"},
      {"measurement": "Kd", "setting": "[6]; [16]", "result": "≥ 70000", "unit": "nM"}
    ]},
    {"sequence": "VTTWEDVPY", "values": [
      {"measurement": "Kd", "setting": "[8]; [20]", "result": 248, "unit": "nM"},
      {"measurement": "Kd", "setting": "[9]; [20]", "result": 520, "unit": "nM"}
    ]},
    {"sequence": "VVRPPFNML", "values": [
      {"measurement": "Kd", "setting": "[10]; [19]", "result": 20.5, "unit": "nM"}
    ]},
    {"sequence": "VWKRFEHLCV", "values": [
      {"measurement": "Kd", "setting": "[7]; [21]", "result": "≥ 69700", "unit": "nM"},
      {"measurement": "Kd", "setting": "[4]; [21]", "result": "≥ 71400", "unit": "nM"},
      {"measurement": "Kd", "setting": "[8]; [21]", "result": 10500, "unit": "nM"},
      {"measurement": "Kd", "setting": "[5]; [21]", "result": "≥ 47600", "unit": "nM"},
      {"measurement": "Kd", "setting": "[9]; [21]", "result": "≥ 70400", "unit": "nM"},
      {"measurement": "Kd", "setting": "[6]; [21]", "result": 7990, "unit": "nM"}
    ]},
    {"sequence": "WFSQRGGSY", "values": [
      {"measurement": "Kd", "setting": "[7]; [16]", "result": 2160, "unit": "nM"},
      {"measurement": "Kd", "setting": "[4]; [16]", "result": 0.847, "unit": "nM"},
      {"measurement": "Kd", "setting": "[8]; [16]", "result": 11, "unit": "nM"},
      {"measurement": "Kd", "setting": "[5]; [16]", "result": "≥ 62500", "unit": "nM"},
      {"measurement": "Kd", "setting": "[9]; [16]", "result": 182, "unit": "nM"},
      {"measurement": "Kd", "setting": "[6]; [16]", "result": "≥ 77800", "unit": "nM"}
    ]},
    {"sequence": "YPFFRKLVL", "values": [
      {"measurement": "Kd", "setting": "[11]; source organism: Vaccinia virus WR", "result": 5.86, "unit": "nM"}
    ]},
    {"sequence": "YTQMCDHRL", "values": [
      {"measurement": "Kd", "setting": "[9]; [14]", "result": 5710, "unit": "nM"}
    ]},
    {"sequence": "YVSSIFLHL", "values": [
      {"measurement": "Kd", "setting": "[7]; [21]", "result": 1850, "unit": "nM"},
      {"measurement": "Kd", "setting": "[4]; [21]", "result": 15.7, "unit": "nM"},
      {"measurement": "Kd", "setting": "[12]", "result": 4820, "unit": "nM"},
      {"measurement": "Kd", "setting": "[8]; [21]", "result": 12500, "unit": "nM"},
      {"measurement": "Kd", "setting": "[13]", "result": "≥ 51000", "unit": "nM"},
      {"measurement": "Kd", "setting": "[9]; [21]", "result": 514, "unit": "nM"}
    ]}
  ]
}
